Results as given in article doi:10.1101/824458 (bioRxiv, 2019).

How the values were obtained:
[1] = target: NS5A-ΔN39 (residues 39-447), recombinant, lacking the membrane-binding amphipathic helix (hepatitis C virus) (UniProt Q9WMX2); test: cross-linking
cross-linking = target: the molecule itself; test: cross-linking

## NS5A-ΔN39 (residues 39-447), recombinant, lacking the membrane-binding amphipathic helix (from UniProt Q9WMX2 40-448) (domain or fragment)
[1]
  stoichiometry N: 2

B1: VAP-33-ΔC20 (recombinant human VAP-33 protein, residues 1-227) (domain or fragment, UniProt Q9P0L0 1-227, looked up)
chain: MASASGAMAKHEQILVLDPPTDLKFKGPFTDVVTTNLKLRNPSDRKVCFKVKTTAPRRYCVRPNSGIIDPGSTVTVSVMLQPFDYDPNEKSKHKFMVQTIFAPPNTSDMEAVWKEAKPDELMDSKLRCVFEMPNENDKLNDMEPSKAVPLNASKQDGPMPKPHSVSLNDTETRKLMEECKRLQGEMMKLSEENRHLRDEGLRLRKVAHSDKPGSTSTASFRDNVTSP
cross-linking
  stoichiometry N: 2

B2: viperin-ΔN50 (residues 50-361), recombinant, C-terminal His6-tagged, iron-sulfur cluster reconstituted (domain or fragment, human, UniProt Q8WXG1 50-361, looked up)
chain: QLVLRGPDETKEEEEDPPLPTTPTSVNYHFTRQCNYKCGFCFHTAKTSFVLPLEEAKRGLLLLKEAGMEKINFSGGEPFLQDRGEYLGKLVRFCKVELRLPSVSIVSNGSLIRERWFQNYGEYLDILAISCDSFDEEVNVLIGRGQGKKNHVENLQKLRRWCRDYRVAFKINSVINRFNVEEDMTEQIKALNPVRWKVFQCLLIEGENCGEDALREAERFVIGDEEFERFLERHKEVSCLVPESNQKMKDSYLILDEYMRFLNCRKGRKDPSKSILDVGVEEAIKFSGFDEKMFLKRGGKYIWSKADLKLDW
cross-linking
  stoichiometry N: 2
